Laboratory results as given in US20050037969A1 (ARBOR VITA, published 2005).
Ends that are not written are not given here. * marks the point of attachment. Biotin = O=C1N[C@H]2[C@H](CS[C@H]2CCCCC(=O)*)N1

Key:
Assay in all cases: A/G assays
[1] = biological target: T1, GST-TAX-IP2 PDZ domain fusion protein (human, UniProt O14908 129-216)
T1 construct: also called TAX-1P2; TAX2; not shown: glutathione S-transferase encoded by vector pGEX-3X (Pharmacia)
T1 chain: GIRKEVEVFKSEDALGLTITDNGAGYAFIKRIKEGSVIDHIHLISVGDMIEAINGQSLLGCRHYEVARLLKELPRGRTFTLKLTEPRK

[2] = biological target: T2, TAX-IP33 PDZ-GST fusion protein (Homo sapiens (Human), UniProt O14910 103-193)
T2 construct: Order of GST and PDZ part and limits not seen in the excerpts
T2 sequence: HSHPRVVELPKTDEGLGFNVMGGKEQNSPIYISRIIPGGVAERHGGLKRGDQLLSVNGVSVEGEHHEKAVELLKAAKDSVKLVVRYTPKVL

[3] = biological target: T3, GST-AF6 PDZ domain fusion protein (Homo sapiens (Human), UniProt P55196 1001-1093)
T3 construct: also called af-6 protein; not shown: glutathione S-transferase encoded by vector pGEX-3X (Pharmacia)
T3 sequence: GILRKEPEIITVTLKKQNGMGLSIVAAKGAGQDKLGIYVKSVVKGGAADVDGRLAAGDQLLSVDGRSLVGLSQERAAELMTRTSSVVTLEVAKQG

[4] = biological target: T4, GST-TAX-IP43 PDZ domain fusion protein (human, UniProt Q13884 109-180)
T4 construct: also called TAX43; not shown: glutathione S-transferase encoded by vector pGEX-3X (Pharmacia)
T4 sequence: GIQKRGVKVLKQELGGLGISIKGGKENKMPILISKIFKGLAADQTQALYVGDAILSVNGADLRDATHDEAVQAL

[5] = biological target: T5, X11β PDZ-GST fusion protein (Rattus norvegicus (Rat), UniProt O35431 560-745)
T5 construct: Order of GST and PDZ part and limits not seen in the excerpts
T5 chain: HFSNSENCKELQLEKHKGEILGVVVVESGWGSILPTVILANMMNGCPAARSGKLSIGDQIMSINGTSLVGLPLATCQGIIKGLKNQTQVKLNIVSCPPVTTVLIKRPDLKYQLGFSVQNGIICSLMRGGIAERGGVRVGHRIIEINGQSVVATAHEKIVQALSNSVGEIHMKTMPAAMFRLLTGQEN

[6] = biological target: T6, K559 PDZ-GST fusion protein (Homo sapiens (Human), UniProt Q9Y6V0 4489-4593)
T6 construct: Order of GST and PDZ part and limits not seen in the excerpts
T6 sequence: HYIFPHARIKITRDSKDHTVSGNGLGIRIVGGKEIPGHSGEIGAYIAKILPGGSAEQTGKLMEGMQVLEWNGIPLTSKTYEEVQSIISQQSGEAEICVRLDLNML

[7] = biological target: T7, SP short PDZ-GST fusion protein (Homo sapiens (Human), UniProt O43464 350-435)
T7 construct: The label SP short is not explained in the excerpts
T7 sequence: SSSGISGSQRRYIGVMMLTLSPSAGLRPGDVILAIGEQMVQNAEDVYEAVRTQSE

[8] = biological target: T8, K858 PDZ-GST fusion protein (Homo sapiens (Human), UniProt Q8WWI1 1038-1131)
T8 construct: Order of GST and PDZ part and limits not seen in the excerpts
T8 sequence: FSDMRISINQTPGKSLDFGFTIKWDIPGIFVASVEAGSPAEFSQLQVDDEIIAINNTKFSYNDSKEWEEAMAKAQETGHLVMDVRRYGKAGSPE

[9] = biological target: T9, GST-PDZK1 fusion protein (PDZ domains 2-4) (Homo sapiens, UniProt Q5T2W1 134-457)
T9 construct: not shown: glutathione S-transferase encoded by vector pGEX-3X (Pharmacia)
T9 sequence: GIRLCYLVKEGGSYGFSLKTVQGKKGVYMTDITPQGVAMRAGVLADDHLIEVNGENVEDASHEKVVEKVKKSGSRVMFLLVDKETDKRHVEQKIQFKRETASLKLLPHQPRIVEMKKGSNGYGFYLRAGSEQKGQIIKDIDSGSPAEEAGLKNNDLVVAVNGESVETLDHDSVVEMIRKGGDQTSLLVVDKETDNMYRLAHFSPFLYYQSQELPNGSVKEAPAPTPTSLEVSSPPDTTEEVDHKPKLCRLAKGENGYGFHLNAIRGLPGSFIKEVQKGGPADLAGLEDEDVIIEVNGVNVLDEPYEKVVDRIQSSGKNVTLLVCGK

[10] = biological target: T10, K316 PDZ-GST fusion protein (Homo sapiens (Human), UniProt Q14CM0 72-159)
T10 construct: Order of GST and PDZ part and limits not seen in the excerpts

[11] = biological target: T11, GST-MPP1 PDZ domain fusion protein (Homo sapiens (Human), UniProt Q00013 67-152)
T11 construct: also called p55; 55 Kd erythrocyte membrane protein; not shown: glutathione S-transferase encoded by vector pGEX-3X (Pharmacia)
T11 sequence: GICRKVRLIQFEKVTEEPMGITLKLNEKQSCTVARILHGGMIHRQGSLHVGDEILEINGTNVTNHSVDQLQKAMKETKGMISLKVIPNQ

[12] = biological target: T12, PICK1 PDZ-GST fusion protein (Bos taurus (Bovine), UniProt Q2T9M1 17-105)
T12 construct: Order of GST and PDZ part and limits not seen in the excerpts

[13] = biological target: T13, GST-TAX-IP40 PDZ domain fusion protein (human, UniProt Q6B4M5 150-252 (rat entry))
T13 construct: also called TAX40; not shown: glutathione S-transferase encoded by vector pGEX-3X (Pharmacia)
T13 sequence: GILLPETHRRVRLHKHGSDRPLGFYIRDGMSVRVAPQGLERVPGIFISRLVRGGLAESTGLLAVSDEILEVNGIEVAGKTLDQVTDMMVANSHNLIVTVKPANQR

[14] = biological target: T14, GST-mouse syntenin fusion protein (Mus musculus, UniProt O08992 108-286)
T14 construct: also called Mus musculus Syntenin; not shown: glutathione S-transferase encoded by vector pGEX-3X (Pharmacia)
T14 chain: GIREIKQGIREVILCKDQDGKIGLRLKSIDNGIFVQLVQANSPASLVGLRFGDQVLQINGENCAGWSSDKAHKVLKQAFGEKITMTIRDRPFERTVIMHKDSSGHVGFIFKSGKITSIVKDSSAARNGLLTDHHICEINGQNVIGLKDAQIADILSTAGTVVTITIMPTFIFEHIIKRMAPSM

[15] = biological target: T15, GST-LIM protein PDZ domain fusion protein (Human, UniProt Q96HC4 2-85)
T15 construct: also called Human LIM protein; not shown: glutathione S-transferase encoded by vector pGEX-3X (Pharmacia)
T15 sequence: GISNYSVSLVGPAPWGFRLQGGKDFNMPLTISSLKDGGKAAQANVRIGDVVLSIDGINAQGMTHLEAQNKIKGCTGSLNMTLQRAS

Measured: binding result

T12 sequence (Q2T9M1 other isoform, or with tags, fused parts or gaps limits assumed): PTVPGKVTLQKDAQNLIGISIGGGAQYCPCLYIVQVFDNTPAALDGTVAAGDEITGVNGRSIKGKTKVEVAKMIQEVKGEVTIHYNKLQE
T10 sequence (Q14CM0 72-159 limits assumed): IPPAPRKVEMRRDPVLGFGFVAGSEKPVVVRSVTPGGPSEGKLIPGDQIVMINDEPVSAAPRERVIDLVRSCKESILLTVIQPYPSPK

Biotin-HKAEIHAQPSDKERLTSDA (also called CD49F (Aform, alpha6)) [CD49F C-terminal peptide AA12L, biotinylated]
no binding: all assays above

Biotin-QATSENGHSARQHVVADTEL [CD34 C-terminal peptide AA7L, biotinylated]
no binding: all assays above

Biotin-ARHRVTSYTSSSVNVSSNL [CDW128A (IL8RA) C-terminal peptide AA29.1L, biotinylated]
no binding: all assays above

Biotin-ISGTPTSTMVHGMTSSSSVV [Clasp-2 C-terminal peptide AA2L, biotinylated]
no binding: all assays above

Biotin-KDSRPSFVGSSSGHTSTTL (also called CDW128E (IL8RB)) [CDW128B (IL8RB) C-terminal peptide AA29.2L, biotinylated]
no binding: all assays above

Biotin-SPQPDSTDNDDYDDISAA [CD6 C-terminal peptide AA6L, biotinylated]
no binding: all assays above

Biotin-TSGTGHNQTRALRASESGI (also called CD97 (CD55L)) [CD97 C-terminal peptide AA14L, biotinylated]
no binding: all assays above

Biotin-EVICYIEKPGVETLEDSVF [CDW125 (IL5R) C-terminal peptide AA28L, biotinylated]
no binding: all assays above
